Test system: MS2 coat protein
Assay: apparent KD of MS2 coat protein; designed switch direction (-1 OFF switch, 1 ON switch): 1; higher = weaker reporter binding
Summary of the method: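 Stalled E. coli RNA polymerase transcribed designed RNA switches on Illumina chips, which were then titrated with SNAP-549-labelled MS2 coat protein, doubling from 0.7 or 1.5 nM to 3 µM. Steps lasted from 0.8–1.5 h at the lowest concentration to 10–20 min at the highest. The apparent KD is each design's median over clusters of curve-fitted normalised fluorescence.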

[1] = input ligand: microRNA oligo, concentration not stated
[2] = Eterna round: R95, input ligand: FMN 200 uM
[3] = Eterna round: R95, input ligand: microRNA oligo, concentration not stated
[4] = Eterna round: R95, input ligand: none

GCUCGAAUCACAGCCAACAUGAGGAUCACCCAUGUAUGUUGGUAGGAUAUCGUUUCUAAGGGAAACGAGAAGGGCCGAACGAGC [SameState NG3 #10] (Eterna round: R96, puzzle: Same State NG 3)
apparent KD of MS2 coat protein (input ligand: FMN 200 uM): 171 nM
apparent KD of MS2 coat protein [1]: 151 nM
apparent KD of MS2 coat protein (input ligand: none): 163 nM

ACCAAUCCAAUAAAACAAGCGUGCUCGUCACAUGAGGAUCACCCAUGUUCAAGCGCUGUUCCUAAUUCCUCAGCGCC [Ortiat] (puzzle: Sensor for hsa-mir-208a)
apparent KD of MS2 coat protein [2]: 72.3 nM
apparent KD of MS2 coat protein [3]: 22.3 nM
apparent KD of MS2 coat protein [4]: 67.7 nM

CCUGACAUGAGGAUCACCCAUGUAGGGAAACAAUGACAUAUGGAGGAUAUACACCCGAAAGGCGCGUAGAAGGUCACAUGUCCA [Eternabot solution 5] (Eterna round: R96, puzzle: Same State NG 3)
apparent KD of MS2 coat protein (input ligand: FMN 200 uM): 10.7 nM
apparent KD of MS2 coat protein [1]: 10.8 nM
apparent KD of MS2 coat protein (input ligand: none): 13 nM

CCGAUGAUAGGACAGGAUAUGACUGUCGUCACAUGAGGAUCACCCAUGUCCCGGCAAUGCCACCGUUAGAAGGGUCCCAUCUCGG [Uslainarin] (Eterna round: R96, puzzle: Same State 2)
apparent KD of MS2 coat protein (input ligand: FMN 200 uM): 18.2 nM
apparent KD of MS2 coat protein [1]: 18.6 nM
apparent KD of MS2 coat protein (input ligand: none): 23.8 nM

AGGGAGGAUGCAGGAUAUAUAAGACAUGAGGAUCACCCAUGUACCUCGUGGAGAAGAAAGGAGAGAUAGAAGGGUAGUGAGGAA [Default title] (Eterna round: R96, puzzle: Same State NG 2)
apparent KD of MS2 coat protein (input ligand: FMN 200 uM): 285 nM
apparent KD of MS2 coat protein [1]: 200 nM
apparent KD of MS2 coat protein (input ligand: none): 258 nM

UAUAUUAUGGUAGGAUAUCUAGGAUAUGGGAAGAGCUAAGCUUGGAAGUCACUUCACCCAGAAGGAGAGAAGGACCAUAAUAUU [pwkr ssNG2 2FMN + F9.5] (Eterna round: R96, puzzle: Same State NG 2)
apparent KD of MS2 coat protein (input ligand: FMN 200 uM): 105 nM
apparent KD of MS2 coat protein [1]: 240 nM
apparent KD of MS2 coat protein (input ligand: none): 76.7 nM

GUAGCAUACCGAGGAUAUUCAUAUAAUACAUGAGGAUCACCCAUGUUAAAUAGGCGAAAGCCUUGGGAGAAGGCGGAAUGCUAC [Xeonanis - 20 Mod66] (Eterna round: R96, puzzle: Same State NG 2)
apparent KD of MS2 coat protein (input ligand: FMN 200 uM): 10.5 nM
apparent KD of MS2 coat protein [1]: 13 nM
apparent KD of MS2 coat protein (input ligand: none): 17.1 nM

UUUAGAUCGCGAGGAUAUCGCGAGGAUCACCCGUGAGAAGGCGCAGAGCCGAGGAUCACCCGGCUGAUCCUGAGGAGGAGGUCU (Eterna round: R96, puzzle: Same State NG 1)
apparent KD of MS2 coat protein (input ligand: FMN 200 uM): 106 nM
apparent KD of MS2 coat protein [1]: 184 nM
apparent KD of MS2 coat protein (input ligand: none): 269 nM

AUUUCUAGCACAGGAUAUCAUGCGAAAAUUGCGUGAGAAGGGUGGACGCUGUCAUUCACGGAAGACAUGAGGAUCACCCAUGUC [SameState NG1 #76] (Eterna round: R96, puzzle: Same State NG 1)
apparent KD of MS2 coat protein (input ligand: FMN 200 uM): 48 nM
apparent KD of MS2 coat protein [1]: 53.4 nM
apparent KD of MS2 coat protein (input ligand: none): 102 nM

UCUUGGUUUUUGCUCGUUUUUUGUGUUGAACAUGAGGAUCACCCAUGUAUUGUACGGUCCAAUUUAAUAAUAGUCCG [JMF 65] (puzzle: Sensor for hsa-mir-208a)
apparent KD of MS2 coat protein [2]: 26.6 nM
apparent KD of MS2 coat protein [3]: 19.7 nM
apparent KD of MS2 coat protein [4]: 32.4 nM

GGUAGGUUACUACCAAACAUGAGGAUCACCCAUGUUGAUGGGAAGGAUAUGGUACCUUUUAGGUACCAGAAGGUCUACUCGAUC [NGss mod of JL's mod of Fisker 3] (Eterna round: R96, puzzle: Same State NG 3)
apparent KD of MS2 coat protein (input ligand: FMN 200 uM): 111 nM
apparent KD of MS2 coat protein [1]: 106 nM
apparent KD of MS2 coat protein (input ligand: none): 148 nM

CGGCUCCGUGGAGGAUAUGGGCCUGCCCGGGAUAACGGGCCUAACACAUGAGGAUCACCCAUGUCCCAGAAGGCCGCUGGAGCC [Enineseson] (Eterna round: R96, puzzle: Same State NG 2)
apparent KD of MS2 coat protein (input ligand: FMN 200 uM): 14 nM
apparent KD of MS2 coat protein [1]: 39.1 nM
apparent KD of MS2 coat protein (input ligand: none): 54.4 nM

ACAUGAGAUCUAGGAUAUAUAGUACCUACAUGUGACAUGAGGAUCACCCAUGUGGUAAGUAUGACAUAGAAGGAGAAGAUAUGU [Equivalance 96 - Jieux - Same State NG 2] (Eterna round: R96, puzzle: Same State NG 2)
apparent KD of MS2 coat protein (input ligand: FMN 200 uM): 37.2 nM
apparent KD of MS2 coat protein [1]: 50.9 nM
apparent KD of MS2 coat protein (input ligand: none): 55.5 nM

GCUAGAAUCAAAGCCAACAUGAGGAUCACCCAUGUAUGUUGGUAGGAUAUCGUUUGCUUUGCAAACGAGAAGGACCAAACUAGC [SameState NG3 #1] (Eterna round: R96, puzzle: Same State NG 3)
apparent KD of MS2 coat protein (input ligand: FMN 200 uM): 30.2 nM
apparent KD of MS2 coat protein [1]: 75.3 nM
apparent KD of MS2 coat protein (input ligand: none): 87.1 nM

CUGACGUGAUCAGGAUAUUGUAAGACAAUGUUGCAAGAAGGGAUUAAUGAGCCCGAACAGACAUGAGGAUCACCCAUGUGUCAG [Eternabot solution 41] (Eterna round: R96, puzzle: Same State NG 1)
apparent KD of MS2 coat protein (input ligand: FMN 200 uM): 69.5 nM
apparent KD of MS2 coat protein [1]: 51.6 nM
apparent KD of MS2 coat protein (input ligand: none): 67.6 nM

AUAUGAGGAGCAGGAUAUGCGAAGAAGAAAGAAGUAGAAGGGCUCAUGGGACGACAUGAGGAUCACCCAUGUACUUCCCGAUGA [AK SSNG1-V2-7] (Eterna round: R96, puzzle: Same State NG 1)
apparent KD of MS2 coat protein (input ligand: FMN 200 uM): 24.6 nM
apparent KD of MS2 coat protein [1]: 26.6 nM
apparent KD of MS2 coat protein (input ligand: none): 37.7 nM

CGUCCAGCCUGAGCUGGACAAAAGCAUGUACAUGAGGAUCACCCAUGUUCAUGUACAAGCUUUUUGCUCGUCUUAGC [salish99_208a_r3_075] (Eterna round: R96, puzzle: Sensor for hsa-mir-208a)
apparent KD of MS2 coat protein (input ligand: FMN 200 uM): 598 nM
apparent KD of MS2 coat protein [1]: 13.8 nM
apparent KD of MS2 coat protein (input ligand: none): 616 nM

GGUAAGAAUUAAGGAUAUUGAAUACAUAUGUUUAACAUGAGGAUCACCCAUGUGGGUUGCGGUGUCGAGAAGGUAAAUUACUAG [Mat - same State NG 2 - JL mod - D99] (Eterna round: R96, puzzle: Same State NG 2)
apparent KD of MS2 coat protein (input ligand: FMN 200 uM): 281 nM
apparent KD of MS2 coat protein [1]: 179 nM
apparent KD of MS2 coat protein (input ligand: none): 229 nM

GGUCCAGCCUGAGCUGGACAAAAGCAUGUACAUGAGGAUCACCCAUGUCAUGUAUAAGCUUUUUGCUCGUCUUAAAA [JL mod - D87 - 11] (puzzle: Sensor for hsa-mir-208a)
apparent KD of MS2 coat protein [2]: 20.4 nM
apparent KD of MS2 coat protein [3]: 10.5 nM
apparent KD of MS2 coat protein [4]: 20 nM

GGUGCGAAAUAAGCCUACAUGAGGAUCACCCAUGUAUGUAGGCAGGAUAUCGUAUGCAAAGCAUACGAGAAGGGCUGUCGCACC [Mat - Same State NG 3 - JL Mod - D48] (Eterna round: R96, puzzle: Same State NG 3)
apparent KD of MS2 coat protein (input ligand: FMN 200 uM): 33.2 nM
apparent KD of MS2 coat protein [1]: 61 nM
apparent KD of MS2 coat protein (input ligand: none): 94.6 nM

AUUAUUAGUGCAGGAUAUGAUUAACAUGAGGAUCACCCAUGUGGUGUUGUGAGUAAGGAGAGUGAUCAGAAGGGCAUUUUUUUU [JMF's solution 21] (Eterna round: R96, puzzle: Same State NG 2)
apparent KD of MS2 coat protein (input ligand: FMN 200 uM): 659 nM
apparent KD of MS2 coat protein [1]: 333 nM
apparent KD of MS2 coat protein (input ligand: none): 406 nM

CUCCUAUCGGGAGGAUAUGGUGCCUUGUUGGUGCUAGAAGGUCCAACAUGAGGAUCACCCAUGUGGGAGUGGUUGAGAGACCUC [SS NG10LRO13] (Eterna round: R96, puzzle: Same State NG 1)
apparent KD of MS2 coat protein (input ligand: FMN 200 uM): 131 nM
apparent KD of MS2 coat protein [1]: 105 nM
apparent KD of MS2 coat protein (input ligand: none): 137 nM

ACAUGAGACCUAGGAUAUCUUGUACCUACAUGUGACAUGAGGAUCACCCAUGUGGUAAGUAUGAUAGAGAAGGAGGAGAUAUGU [Equivalance 55 - Jieux - Same State NG 2] (Eterna round: R96, puzzle: Same State NG 2)
apparent KD of MS2 coat protein (input ligand: FMN 200 uM): 15.6 nM
apparent KD of MS2 coat protein [1]: 39.8 nM
apparent KD of MS2 coat protein (input ligand: none): 51.9 nM

UGUAUACAUGAGGAUCACCCAUGUCAACGUAGUCGAGGAUAUGGGCAGCCGUGAGGCGUACUAGAAGGCGAAGAGG [JL-ss1-3.06 ViennaUCT mod] (puzzle: Same State 1)
apparent KD of MS2 coat protein [3]: 116 nM

UAGUGCGUUAGAGGAUAUUCUAAAAUAAAAUAAAAGACAUGAGGAUCACCCAUGUAUGUACAUGGGAAGAAGGCUGAUGUGCUA [Omei SS(NG)2 Bv1] (Eterna round: R96, puzzle: Same State NG 2)
apparent KD of MS2 coat protein [1]: 296 nM

UGUUGUUAAUUAGGAUAUGGUCACAUGAGGAUCACCCAUGUAAUGUCGAUGCUAUGUGGACACGAUCAGAAGGAAUGGCUAACA [SameState NG2 #93] (Eterna round: R96, puzzle: Same State NG 2)
apparent KD of MS2 coat protein (input ligand: FMN 200 uM): 21.3 nM
apparent KD of MS2 coat protein [1]: 69.7 nM
apparent KD of MS2 coat protein (input ligand: none): 102 nM

UGUUAUUAGACAGGAUAUUGAAUGUUAAGUAUUAACAUGAGGAUCACCCAUGUAUUUGAUUGGUACAAGAAGGGUCAUGUUCCU [JR_SSNG2_Sub016] (Eterna round: R96, puzzle: Same State NG 2)
apparent KD of MS2 coat protein [1]: 399 nM

AGGCAAGCUUUUUGCUGGUAUGGAGGAUAACAUGAGGAUCACCCAUGUAUUGGAGGUGUUGAAGAUUUGAGAAAGAA [JR_SHM208A_Sub005] (puzzle: Sensor for hsa-mir-208a)
apparent KD of MS2 coat protein [2]: 118 nM
apparent KD of MS2 coat protein [3]: 149 nM
apparent KD of MS2 coat protein [4]: 139 nM

GUGGUCUGACAUGAGGAUCACCCAUGUGGAAUAAAUAAGGGUUAGGAUAUCUUGAGGAUCACCCAAGAGAAGGGAUGGUUGGUG (Eterna round: R96, puzzle: Same State NG 3)
apparent KD of MS2 coat protein (input ligand: FMN 200 uM): 125 nM
apparent KD of MS2 coat protein [1]: 90.7 nM
apparent KD of MS2 coat protein (input ligand: none): 124 nM

ACUUGCUUUUUGCUCAUUUUAUGUCCGAAACAUGAGGAUCACCCAUGUGUAGAUUAUGUGUUGUUUUUGAUACGUGA [JR_SHM208A_Sub067] (puzzle: Sensor for hsa-mir-208a)
apparent KD of MS2 coat protein [2]: 24.6 nM
apparent KD of MS2 coat protein [3]: 20.7 nM
apparent KD of MS2 coat protein [4]: 26.3 nM

From the supplement of paper PMC9170038
